Results: PMC11724288, “Structural and kinetic insights into tRNA promoter engagement by yeast general transcription factor TFIIIC”

Assays:
[1] = molecular target: T1, TFIIICΔtail (τ138, τ131, τ95Δtail, τ91, τ60, τ55) (Saccharomyces cerevisiae, UniProt P34111;P33339;P32367;Q06339;Q12308;Q12415 1-1160;1-1025;1-593;1-672;1-588;1-435); assay: EMSA; not significantly changed versus A/B; 100-900 nM protein; Buffer FB: 20 mM HEPES pH 7.5, 150 mM KCl, 2 mM MgCl2, 5 mM DTT; filter binding 1 h at 4 C; EMSA 20 min RT with 1 ug poly-dI/dC, gel at 4 C; footprint 30 min RT, DNase I 28 C; settings: protein: recombinant; copies: 1;1;1;1;1;1; label: 32P
[2] = molecular target: T1, TFIIICΔtail (τ138, τ131, τ95Δtail, τ91, …); assay: filter binding; 150 mM KCl, 4 C, apparent Kd, Hill coefficient 1, N=1; Buffer FB: 20 mM HEPES pH 7.5, 150 mM KCl, 2 mM MgCl2, 5 mM DTT; filter binding 1 h at 4 C; EMSA 20 min RT with 1 ug poly-dI/dC, gel at 4 C; footprint 30 min RT, DNase I 28 C; settings: protein: recombinant; copies: 1;1;1;1;1;1; blunt

Binder	binding result [1]	Kd [2] [µM]
mA/B (EMSA) (dsDNA) DNA 1: TCCATTGAAAAGTCGCCATCTAACTATTGTCGTTAGTACACATCGTTGTGGCCGATGAAACCCTGGTTCGATTCTAGGAGATGGCATTTT DNA 2: AAAATGCCATCTCCTAGAATCGAACCAGGGTTTCATCGGCCACAACGATGTGTACTAACGACAATAGTTAGATGGCGACTTTTCAATGGA	binds	–
85-bp tRNAHis (dsDNA) DNA 1: TGAAAAGTCGCCATCTTAGTATAGTGGTTAGTACACATCGTTGTGGCCGATGAAACCCTGGTTCGATTCTAGGAGATGGCATTTT DNA 2: AAAATGCCATCTCCTAGAATCGAACCAGGGTTTCATCGGCCACAACGATGTGTACTAACCACTATACTAAGATGGCGACTTTTCA	–	0.03 ± 0.001
